Laboratory results as given in the supplement of paper PMC5998384.

Assays:
HeLa Kyoto [1] = assay: melting temperature (median over replicates), in situ; higher = more thermally stable
HeLa Kyoto [2] = assay: solubility change mitosis vs G1/S (difference of NP-40 vs SDS log2 ratios) (log2 ratio difference); higher = more soluble in mitosis
HeLa Kyoto [3] = assay: solubility in G1/S (NP-40 vs SDS abundance) (log2 ratio); higher = more soluble; conditions: cell cycle stage: G1/S
HeLa Kyoto [4] = assay: thermal stability score vs G1/S (z-score of summed log2 fold changes over temperatures); higher = more thermally stable than in G1/S
[5] = cell cycle stage: early G1 (4.5 h after nocodazole release)
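Throughout, for melting temperature (median over replicates), in situ: HeLa Kyoto cells synchronized by double thymidine or nocodazole block, proteins quantified by TMT10plex mass spectrometry, three independent biological replicates.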
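Throughout, for solubility change mitosis vs G1/S (difference of NP-40 vs SDS log2 ratios): synchronized HeLa Kyoto cells (double thymidine block for G1/S, nocodazole release for mitosis), protein amounts in NP-40 versus SDS lysates quantified by mass spectrometry, three biological replicates.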
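Throughout, for solubility in G1/S (NP-40 vs SDS abundance): HeLa Kyoto cells arrested at G1/S by double thymidine block, proteins quantified by TMT10plex mass spectrometry in mild NP-40 versus SDS extracts, three biological replicates.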
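Throughout, for thermal stability score vs G1/S (z-score of summed log2 fold changes over temperatures): synchronized HeLa Kyoto cells, proteins quantified by TMT10plex mass spectrometry, three biological replicates, mitosis taken 0.5 h after nocodazole release, G1/S directly after double thymidine block.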

**Q.** Which results are given for “MAALTLRGVRELLKRVDLATVPRRHRYKKKWAATEPKFPAVRLALQNFDMTYSVQFGDLWPSIRVSLLSEQKYGALVNNFAAWDHVSAKLEQLSAKDFVNEAISHWELQSEGGQSAAPSPASWACSPNLRCFTFDRGDISRFPPARPGSLGVMEYYLMDAASLLPVLALGLQPGDIVLDLCAAPGGKTLALLQTGCCRNLAANDLSPSRIARLQKILHSYVPEEIRDGNQVRVTSWDGRKWGELEGDTYDRVLVDVPCTTDRHSLHEEENNIFKRSRKKERQILPVLQVQLLAAGLLATKPGGHVVYSTCSLSHLQNEYVVQGAIELLANQYSIQVQVEDLTHFRRVFMDTFCFFSSCQVGELVIPNLMANFGPMYFCKMRRLT [NSUN4]”?
**A.** melting temperature (HeLa Kyoto [1]; cell cycle stage: G1/S): 51.7 °C; melting temperature (HeLa Kyoto [1]; cell cycle stage: mitosis): 51.9 °C; solubility change mitosis (log2) (HeLa Kyoto [2]): 0.115; solubility in G1/S (log2) (HeLa Kyoto [3]): -0.195; thermal stability score (HeLa Kyoto [4]; [5]): 0.266; thermal stability score (HeLa Kyoto [4]; cell cycle stage: mitosis): 0.044

**Q.** Which results are given for “MAAEDELQLPRLPELFETGRQLLDEVEVATEPAGSRIVQEKVFKGLDLLEKAAEMLSQLDLFSRNEDLEEIASTDLKYLLVPAFQGALTMKQVNPSKRLDHLQRAREHFINYLTQCHCYHVAEFELPKTMNNSAENHTANSSMAYPSLVAMASQRQAKIQRYKQKKELEHRLSAMKSAVESGQADDERVREYYLLHLQRWIDISLEEIESIDQEIKILRERDSSREASTSNSSRQERPPVKPFILTRNMAQAKVFGAGYPSLPTMTVSDWYEQHRKYGALPDQGIAKAAPEEFRKAAQQQEEQEEKEEEDDEQTLHRAREWDDWKDTHPRGYGNRQNMG [IGBP1]”?
**A.** melting temperature (HeLa Kyoto [1]; cell cycle stage: G1/S): 50.7 °C; melting temperature (HeLa Kyoto [1]; cell cycle stage: mitosis): 51.4 °C; solubility change mitosis (log2) (HeLa Kyoto [2]): 0.103; solubility in G1/S (log2) (HeLa Kyoto [3]): 0.454; thermal stability score (HeLa Kyoto [4]; [5]): -0.476; thermal stability score (HeLa Kyoto [4]; cell cycle stage: mitosis): -0.0586

**Q.** How did the melting temperature (HeLa Kyoto [1]; cell cycle stage: G1/S) turn out when “MLRRILQRTPGRVGSQGSDLDSSATPINTVDVNNESSSEGFICPQCMKSLGSADELFKHYEAVHDAGNDSGHGGESNLALKRDDVTLLRQEVQDLQASLKEEKWYSEELKKELEKYQGLQQQEAKPDGLVTDSSAELQSLEQQLEEAQTENFNIKQMKDLFEQKAAQLATEIADIKSKYDEERSLREAAEQKVTRLTEELNKEATVIQDLKTELLQRPGIEDVAVLKKELVQVQTLMDNMTLERERESEKLKDECKKLQSQYASSEATISQLRSELAKGPQEVAVYVQELQKLKSSVNELTQKNQTLTENLLKKEQDYTKLEEKHNEESVSKKNIQATLHQKDLDCQQLQSRLSASETSLHRIHVELSEKGEATQKLKEELSEVETKYQHLKAEFKQLQQQREEKEQHGLQLQSEINQLHSKLLETERQLGEAHGRLKEQRQLSSEKLMDKEQQVADLQLKLSRLEEQLKEKVTNSTELQHQLDKTKQQHQEQQALQQSTTAKLREAQNDLEQVLRQIGDKDQKIQNLEALLQKSKENISLLEKEREDLYAKIQAGEGETAVLNQLQEKNHTLQEQVTQLTEKLKNQSESHKQAQENLHDQVQEQKAHLRAAQDRVLSLETSVNELNSQLNESKEKVSQLDIQIKAKTELLLSAEAAKTAQRADLQNHLDTAQNALQDKQQELNKITTQLDQVTAKLQDKQEHCSQLESHLKEYKEKYLSLEQKTEELEGQIKKLEADSLEVKASKEQALQDLQQQRQLNTDLELRATELSKQLEMEKEIVSSTRLDLQKKSEALESIKQKLTKQEEEKKILKQDFETLSQETKIQHEELNNRIQTTVTELQKVKMEKEALMTELSTVKDKLSKVSDSLKNSKSEFEKENQKGKAAILDLEKTCKELKHQLQVQMENTLKEQKELKKSLEKEKEASHQLKLELNSMQEQLIQAQNTLKQNEKEEQQLQGNINELKQSSEQKKKQIEALQGELKIAVLQKTELENKLQQQLTQAAQELAAEKEKISVLQNNYEKSQETFKQLQSDFYGRESELLATRQDLKSVEEKLSLAQEDLISNRNQIGNQNKLIQELKTAKATLEQDSAKKEQQLQERCKALQDIQKEKSLKEKELVNEKSKLAEIEEIKCRQEKEITKLNEELKSHKLESIKEITNLKDAKQLLIQQKLELQGKADSLKAAVEQEKRNQQILKDQVKKEEEELKKEFIEKEAKLHSEIKEKEVGMKKHEENEAKLTMQITALNENLGTVKKEWQSSQRRVSELEKQTDDLRGEIAVLEATVQNNQDERRALLERCLKGEGEIEKLQTKVLELQRKLDNTTAAVQELGRENQSLQIKHTQALNRKWAEDNEVQNCMACGKGFSVTVRRHHCRQCGNIFCAECSAKNALTPSSKKPVRVCDACFNDLQG [EEA1]” was run?
**A.** Its melting temperature is 57.3 °C.

**Q.** And the melting temperature (HeLa Kyoto [1]; cell cycle stage: mitosis)?
**A.** Its melting temperature is 58 °C.

**Q.** And the “solubility change mitosis (log2)” value (HeLa Kyoto [2])?
**A.** Its value is 0.0149.

**Q.** And the “solubility in G1/S (log2)” value (HeLa Kyoto [3])?
**A.** The value was 0.678.

**Q.** What about the thermal stability score (HeLa Kyoto [4]; [5]) of the same sequence?
**A.** The thermal stability score was -3.01.

**Q.** And the thermal stability score (HeLa Kyoto [4]; cell cycle stage: mitosis)?
**A.** The thermal stability score was -4.2.
